According to patent US20220372155A1 (LYVGEN BIOPHARMA, published 2022):

B1: Ly614 (bispecific antibody, human IgG1, kappa)
heavy: QVQLQQPGAELVKPGASVKLSCKASGYTFTSYWMHWVKQRPGQGLEWIGMIHPNSGGTNYNEKFKGKGTLTVDKSSSTAYMQLSSLTSDDSAVYYCVTSQATWFAYWGQGTLVTVSAASTKGPSVFPLAPSSKSTSGGTAALGCLVKDYFPEPVTVSWNSGALTSGVHTFPAVLQSSGLYSLSSVVTVPSSSLGTQTYICNVNHKPSNTKVDKKVEPKSCDKTHTCPPCPAPELLGPSVFLFPPKPKDTLMISRTPEVTCVVVDVSHEDPEVKFNWYVDGVEVHNAKTKPREEQYNSTYRVVSVLTVLHQDWLNGKEYKCKVSNKALPAPIEKTISKAKGQPREPQVYTLPPSREEMTKNQVSLTCLVKGFYPSDIAVEWESNGQPENNYKTTPPVLDSDGSFFLYSKLTVDKSRWQQGNVFSCSVMHEALHNHYTQKSLSLSPGGGGGSGGGGSGGGGSGGGGSDIQMTQSPSSLSASVGDRVTITCKASQNIYIYLNWYQQKPGKAPKLLIYNTNNLQTGVPSRFSGSGSGTDFTLTISSLQPEDFATYYCLQHSSRRTFGGGTKVEIKGGGGSGGGGSGGGGSGGGGSQVQLVESGGGLVQPGGSLKLSCATSGFNFNDYFMNWVRQASGKGLEWVGQIRNKNYNYATYYTESLEGRVTISRDDSKNTAYLQMNSLKTEDTAVYYCTSYYYDGFADYFDYWGQGTTVTVSS
light: ENVLTQSPAIMSVSPGEKVTMTCRASSSVSSSYLHWYQQKSGASPKFWIYSTSNLASGVPARFSGSGSGTSYSLTISSVEAEDAATYYCQHYSGYPLTFGAGTKLELRRTVAAPSVFIFPPSDEQLKSGTASVVCLLNNFYPREAKVQWKVDNALQSGNSQESVTEQDSKDSTYSLSSTLTLSKADYEKHKVYACEVTHQGLSSPVTKSFNRGEC
notes: Ly387 HC (IgG1 mutated Fc)-TM740 scFv VL-VH + Ly387 LC
B2: Ly615 (bispecific antibody, human IgG1, kappa)
heavy: QVQLQQPGAELVKPGASVKLSCKASGYTFTSYWMHWVKQRPGQGLEWIGMIHPNSGGTNYNEKFKGKGTLTVDKSSSTAYMQLSSLTSDDSAVYYCVTSQATWFAYWGQGTLVTVSAASTKGPSVFPLAPSSKSTSGGTAALGCLVKDYFPEPVTVSWNSGALTSGVHTFPAVLQSSGLYSLSSVVTVPSSSLGTQTYICNVNHKPSNTKVDKKVEPKSCDKTHTCPPCPAPELLGPSVFLFPPKPKDTLMISRTPEVTCVVVDVSHEDPEVKFNWYVDGVEVHNAKTKPREEQYNSTYRVVSVLTVLHQDWLNGKEYKCKVSNKALPAPIEKTISKAKGQPREPQVYTLPPSREEMTKNQVSLTCLVKGFYPSDIAVEWESNGQPENNYKTTPPVLDSDGSFFLYSKLTVDKSRWQQGNVFSCSVMHEALHNHYTQKSLSLSPGGGGGSGGGGSGGGGSGGGGSQVQLVESGGGLVQPGGSLKLSCATSGFNFNDYFMNWVRQASGKGLEWVGQIRNKNYNYATYYTESLEGRVTISRDDSKNTAYLQMNSLKTEDTAVYYCTSYYYDGFADYFDYWGQGTTVTVSSGGGGSGGGGSGGGGSGGGGSDIQMTQSPSSLSASVGDRVTITCKASQNIYIYLNWYQQKPGKAPKLLIYNTNNLQTGVPSRFSGSGSGTDFTLTISSLQPEDFATYYCLQHSSRRTFGGGTKVEIK
light: B1 light
notes: Ly387 HC (IgG1 mutated Fc)-TM740 scFv VH-VL + Ly387 LC
B3: Ly610 (bispecific antibody, human IgG1, kappa)
heavy: EVQLQQSGPELVKPGASVKMSCKASGYTFTSYVMHWVKQKPGQGLEWIGYINPYNDGTECTDKFKGKATLTSDKSSSTAYMELSSLTSEDSAVYYCASIYYGYDGTYFGVWGAGTSVTVSSASTKGPSVFPLAPSSKSTSGGTAALGCLVKDYFPEPVTVSWNSGALTSGVHTFPAVLQSSGLYSLSSVVTVPSSSLGTQTYICNVNHKPSNTKVDKKVEPKSCDKTHTCPPCPAPELLGPSVFLFPPKPKDTLMISRTPEVTCVVVDVSHEDPEVKFNWYVDGVEVHNAKTKPREEQYNSTYRVVSVLTVLHQDWLNGKEYKCKVSNKALPAPIEKTISKAKGQPREPQVYTLPPSREEMTKNQVSLTCLVKGFYPSDIAVEWESNGQPENNYKTTPPVLDSDGSFFLYSKLTVDKSRWQQGNVFSCSVMHEALHNHYTQKSLSLSPGGGGGSGGGGSGGGGSGGGGSDIQMTQSPSSLSASVGDRVTITCKASQNIYIYLNWYQQKPGKAPKLLIYNTNNLQTGVPSRFSGSGSGTDFTLTISSLQPEDFATYYCLQHSSRRTFGGGTKVEIKGGGGSGGGGSGGGGSGGGGSQVQLVESGGGLVQPGGSLKLSCATSGFNFNDYFMNWVRQASGKGLEWVGQIRNKNYNYATYYTESLEGRVTISRDDSKNTAYLQMNSLKTEDTAVYYCTSYYYDGFADYFDYWGQGTTVTVSS
light: QIVLSQSPAILSTSPGEKVTMTCRASSSVSYMHWYQQKPGSSPKPWIYATSNLASGVPARFSGSRSGTSYSLTISRVEAEDAATYYCQQWSSNTLTFGGGTKLELKRTVAAPSVFIFPPSDEQLKSGTASVVCLLNNFYPREAKVQWKVDNALQSGNSQESVTEQDSKDSTYSLSSTLTLSKADYEKHKVYACEVTHQGLSSPVTKSFNRGEC
notes: Ly383 HC (IgG1 mutated Fc)-TM740 scFv VL-VH + Ly383 LC
B4: Ly611 (bispecific antibody, human IgG1, kappa)
heavy: EVQLQQSGPELVKPGASVKMSCKASGYTFTSYVMHWVKQKPGQGLEWIGYINPYNDGTECTDKFKGKATLTSDKSSSTAYMELSSLTSEDSAVYYCASIYYGYDGTYFGVWGAGTSVTVSSASTKGPSVFPLAPSSKSTSGGTAALGCLVKDYFPEPVTVSWNSGALTSGVHTFPAVLQSSGLYSLSSVVTVPSSSLGTQTYICNVNHKPSNTKVDKKVEPKSCDKTHTCPPCPAPELLGPSVFLFPPKPKDTLMISRTPEVTCVVVDVSHEDPEVKFNWYVDGVEVHNAKTKPREEQYNSTYRVVSVLTVLHQDWLNGKEYKCKVSNKALPAPIEKTISKAKGQPREPQVYTLPPSREEMTKNQVSLTCLVKGFYPSDIAVEWESNGQPENNYKTTPPVLDSDGSFFLYSKLTVDKSRWQQGNVFSCSVMHEALHNHYTQKSLSLSPGGGGGSGGGGSGGGGSGGGGSQVQLVESGGGLVQPGGSLKLSCATSGFNFNDYFMNWVRQASGKGLEWVGQIRNKNYNYATYYTESLEGRVTISRDDSKNTAYLQMNSLKTEDTAVYYCTSYYYDGFADYFDYWGQGTTVTVSSGGGGSGGGGSGGGGSGGGGSDIQMTQSPSSLSASVGDRVTITCKASQNIYIYLNWYQQKPGKAPKLLIYNTNNLQTGVPSRFSGSGSGTDFTLTISSLQPEDFATYYCLQHSSRRTFGGGTKVEIK
light: B3 light
notes: Ly383 HC (IgG1 mutated Fc)-TM740 scFv VH-VL + Ly383 LC
B5: Ly612 (bispecific antibody, human IgG1, kappa)
heavy: EVQLQQSGPELVKPGASVKMSCKASGYTFTSYVMHWVKQKPGQGLEWIGYINPYNDGTECTDKFKGKATLTSDKSSSTAYMELSSLTSEDSAVYYCASIYYGYDGTYFGVWGAGTSVTVSSASTKGPSVFPLAPSSKSTSGGTAALGCLVKDYFPEPVTVSWNSGALTSGVHTFPAVLQSSGLYSLSSVVTVPSSSLGTQTYICNVNHKPSNTKVDKKVEPKSCDKTHTCPPCPAPELLGPSVFLFPPKPKDTLMISRTPEVTCVVVDVSHEDPEVKFNWYVDGVEVHNAKTKPREEQYNSTYRVVSVLTVLHQDWLNGKEYKCKVSNKALPAPIEKTISKAKGQPREPQVYTLPPSREEMTKNQVSLTCLVKGFYPSDIAVEWESNGQPENNYKTTPPVLDSDGSFFLYSKLTVDKSRWQQGNVFSCSVMHEALHNHYTQKSLSLSPGGGGGSGGGGSGGGGSGGGGSDIQMTQSPSSLSASVGDRVTITCLASEDISNDLAWYQQKPGKAPKLLIYFVDRLLDGVPSRFSGSGSGTDFTLTISSLQPEDFATYYCQQSYKYPPTFGQGTKLEIKGGGGSGGGGSGGGGSGGGGSEVQLVESGGGLVQPGGSLRLSCAASGFTFTNYGLHWVRQAPGKGLEWVSSISPSGGVTYYRDSVKGRFTISRDNSKNTLYLQMNSLRAEDTAVYYCAKPFLGWGGANWIAHWGQGTLVTVSS
light: B3 light
notes: Ly383 HC (IgG1 mutated Fc)-TM559 scFv VL-VH + Ly383 LC
B6: Ly613 (bispecific antibody, human IgG1, kappa)
heavy: EVQLQQSGPELVKPGASVKMSCKASGYTFTSYVMHWVKQKPGQGLEWIGYINPYNDGTECTDKFKGKATLTSDKSSSTAYMELSSLTSEDSAVYYCASIYYGYDGTYFGVWGAGTSVTVSSASTKGPSVFPLAPSSKSTSGGTAALGCLVKDYFPEPVTVSWNSGALTSGVHTFPAVLQSSGLYSLSSVVTVPSSSLGTQTYICNVNHKPSNTKVDKKVEPKSCDKTHTCPPCPAPELLGPSVFLFPPKPKDTLMISRTPEVTCVVVDVSHEDPEVKFNWYVDGVEVHNAKTKPREEQYNSTYRVVSVLTVLHQDWLNGKEYKCKVSNKALPAPIEKTISKAKGQPREPQVYTLPPSREEMTKNQVSLTCLVKGFYPSDIAVEWESNGQPENNYKTTPPVLDSDGSFFLYSKLTVDKSRWQQGNVFSCSVMHEALHNHYTQKSLSLSPGGGGGSGGGGSGGGGSGGGGSEVQLVESGGGLVQPGGSLRLSCAASGFTFTNYGLHWVRQAPGKGLEWVSSISPSGGVTYYRDSVKGRFTISRDNSKNTLYLQMNSLRAEDTAVYYCAKPFLGWGGANWIAHWGQGTLVTVSSGGGGSGGGGSGGGGSGGGGSDIQMTQSPSSLSASVGDRVTITCLASEDISNDLAWYQQKPGKAPKLLIYFVDRLLDGVPSRFSGSGSGTDFTLTISSLQPEDFATYYCQQSYKYPPTFGQGTKLEIK
light: B3 light
notes: Ly383 HC (IgG1 mutated Fc)-TM559 scFv VH-VL + Ly383 LC

Molecular target: T1, human CD40 expressed on CHO cells (human, UniProt P25942 21-277)
T1 construct: whole, on cells; also used for the reporter cells over-expressing human CD40; also called cellular CD40; CHO-CD40 cells
T1 sequence (P25942 21-277): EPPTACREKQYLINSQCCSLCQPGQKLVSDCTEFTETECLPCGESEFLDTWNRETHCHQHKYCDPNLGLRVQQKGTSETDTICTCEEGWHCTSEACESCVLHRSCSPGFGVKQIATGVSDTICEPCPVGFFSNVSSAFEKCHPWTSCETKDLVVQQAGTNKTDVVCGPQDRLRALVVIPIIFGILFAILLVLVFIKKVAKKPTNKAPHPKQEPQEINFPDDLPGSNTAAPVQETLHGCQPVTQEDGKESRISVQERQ
Assay: FACS, CHO cells

Binding result, binds:
B1
B2
B3
B4
B5
B6

Molecular target: T2, Human CD40 ECD protein (mouse IgG2a Fc tag) (human, UniProt P25942 21-193)
T2 construct: extracellular domain; also called Human CD40-msFc; human recombinant CD40; not shown: mouse IgG2a Fc tag
T2 sequence (P25942 21-193): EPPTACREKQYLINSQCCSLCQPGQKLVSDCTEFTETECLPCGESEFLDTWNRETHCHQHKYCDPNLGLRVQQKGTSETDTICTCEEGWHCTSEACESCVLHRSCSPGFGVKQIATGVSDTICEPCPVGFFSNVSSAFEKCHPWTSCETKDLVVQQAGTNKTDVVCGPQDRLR
Assay: bridging ELISA, coated B7H3-His, soluble CD40-msFc
Method: Anti-B7H3/CD40 bi-specific antibodies were analyzed by ELISA for their simultaneous binding to recombinant human B7H3 and human CD40. Briefly, Human B7H3 CD protein (His-tag) was diluted and coated onto an ELISA plate with a volume of […] by incubation at 4° C. overnight. The next day, the plate was blocked with PBST-BSA buffer, then serially diluted samples of anti-B7H3/CD40 bi-specific antibodies were pipetted into appropriate wells at 50 μL/well, and the plate was incubated for 1 h followed by washing. Human CD40-msFc antibody was added into the plate at 50 μL/well. After 1-hour incubation at room temperature, […] anti-Mouse IgG (H+L) antibody was added into the plate at 100 μL/well. The plate was incubated for 1 hour at room temperature followed by washing. TMB substrate solution was added at 100 p L/well and the color development was stopped by adding 100 uUwell Stop Solution (2N H2SO4). Absorbance at 450 nm and 620 nm was read by Tecan F200 Pro plate reader. GraphPad 7.0, “[Agonist] vs. response—Variable slope (four parameters)” was used to plot the binding data and calculate binding EC50 values.

Binding result, binds:
B1
B2
B3
B4
B5
B6
